Measurements: doi:10.1101/2022.04.12.488087 (bioRxiv, 2022)

B1: nanobody 3-2A2-4 (VHH with 6xHis tag, for crystal structural analysis) (VHH)
VHH: QVQLQESGGGLVQPGESLRLSCAASGSISTLNVMGWYRQAPGKQRELVAQITLDGSPEYADSVKGRFTITKDGAQSTLYLQMNNLKPEDTAVYFCKLENGGFFYYWGQGTQVTVST
B2: VHH72, previously published nanobody (VHH)
VHH: QVQLQESGGGLVQAGGSLRLSCAASGRTFSEYAMGWFRQAPGKEREFVATISWSGGSTYYTDSVKGRFTISRDNAKNTVYLQMNSLKPDDTAVYYCAAAGLGTVVSEWDYDYDYWGQGTQVTVSS
B3: nanobody Nb70 (VHH with 6xHis tag, for crystal structural analysis) (VHH)
VHH: QVQLVESGGGLVQAGGSLRLSCVASGRTFSRYAMGWFRQAPGKEREFVAVIEWDGGTSYYVDSVKGRFTISRDNAKNTVYLQMNSLKPEDTAVYYCAAGGNQYYSATYSIWNEYDFWGQGTQVTVSS

Assays:
[1] = biological target: T1, SARS-CoV-2 wild type receptor binding domain (RBD) (SARS-CoV-2, UniProt P0DTC2); assay: crystal structure
[2] = biological target: T1, SARS-CoV-2 wild type receptor binding …; assay: SPR

| Binder | binding result [1] | binding result [2] |
| --- | --- | --- |
| B1 | binds | – |
| B2 | – | binds |
| B3 | binds | – |
